The record followed here is paper doi:10.1101/2024.03.24.586400 (bioRxiv, 2024).

What all share (assay): grating-coupled interferometry
Experiment [1] addresses SARNP UCM-1 and UCM-4 peptides.
Experiment [2] addresses SARNP UCM-1 peptide (GCI) (human).
For experiment [3], the target named is TREX-2^M, minimal recombinant TREX-2 complex (GANP Sac3 domain residues 582-1004, PCID2, SEM1) (human) (UniProt O60318).
Experiment [4] concerns the target UAP56 (DDX39B), recombinant wild type (human, UniProt Q13838 1-428).

No end group written: not given here.

Chain of UAP56 (DDX39B), recombinant wild type (from UniProt Q13838 1-428) (enzyme) (Q13838 whole entry): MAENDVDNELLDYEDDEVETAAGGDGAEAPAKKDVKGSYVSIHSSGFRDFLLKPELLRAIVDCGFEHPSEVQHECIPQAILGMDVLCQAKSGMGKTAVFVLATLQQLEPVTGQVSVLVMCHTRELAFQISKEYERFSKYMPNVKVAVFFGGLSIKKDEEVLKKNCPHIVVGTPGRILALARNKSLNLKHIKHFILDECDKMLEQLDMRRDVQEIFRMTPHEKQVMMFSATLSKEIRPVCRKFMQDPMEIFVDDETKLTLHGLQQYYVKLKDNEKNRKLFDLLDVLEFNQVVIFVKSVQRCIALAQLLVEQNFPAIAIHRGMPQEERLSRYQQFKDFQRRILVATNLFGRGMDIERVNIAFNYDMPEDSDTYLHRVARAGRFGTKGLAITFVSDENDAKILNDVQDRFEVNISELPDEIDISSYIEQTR
Chain of UAP56 (DDX39B), recombinant wild type (human, UniProt Q13838 1-428) (Q13838 whole entry): as above
Chain of TREX-2^M, minimal recombinant TREX-2 complex (GANP Sac3 domain residues 582-1004, PCID2, SEM1) (human) (O60318 582-1004, chain 1 of 3): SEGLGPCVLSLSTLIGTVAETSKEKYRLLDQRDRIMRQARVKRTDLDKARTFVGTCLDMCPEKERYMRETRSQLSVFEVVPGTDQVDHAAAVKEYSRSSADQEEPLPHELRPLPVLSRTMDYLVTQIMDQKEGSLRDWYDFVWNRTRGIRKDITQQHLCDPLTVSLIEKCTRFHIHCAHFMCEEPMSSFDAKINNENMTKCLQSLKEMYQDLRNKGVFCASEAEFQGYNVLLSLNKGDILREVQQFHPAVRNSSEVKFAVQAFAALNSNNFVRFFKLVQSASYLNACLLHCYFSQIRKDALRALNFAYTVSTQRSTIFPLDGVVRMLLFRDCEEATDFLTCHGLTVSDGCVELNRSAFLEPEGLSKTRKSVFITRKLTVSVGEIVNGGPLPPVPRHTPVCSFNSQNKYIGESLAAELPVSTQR
Chain of TREX-2^M, minimal recombinant TREX-2 complex (GANP Sac3 domain residues 582-1004, PCID2, SEM1) (human) (Q5JVF3 whole entry, chain 2 of 3, further chain, the tested form may be a part): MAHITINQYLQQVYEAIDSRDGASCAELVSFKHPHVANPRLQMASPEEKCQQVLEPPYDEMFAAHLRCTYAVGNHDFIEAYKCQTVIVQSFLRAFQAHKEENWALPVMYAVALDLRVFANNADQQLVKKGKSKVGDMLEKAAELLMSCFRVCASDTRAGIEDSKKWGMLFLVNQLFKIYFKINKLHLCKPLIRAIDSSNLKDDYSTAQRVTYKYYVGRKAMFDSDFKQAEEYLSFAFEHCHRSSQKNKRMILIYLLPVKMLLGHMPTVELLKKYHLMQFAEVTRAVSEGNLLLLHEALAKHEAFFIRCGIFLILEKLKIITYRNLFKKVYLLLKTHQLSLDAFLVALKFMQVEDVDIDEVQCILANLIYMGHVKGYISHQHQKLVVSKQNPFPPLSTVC
Chain of TREX-2^M, minimal recombinant TREX-2 complex (GANP Sac3 domain residues 582-1004, PCID2, SEM1) (human) (P60896 whole entry, chain 3 of 3, further chain, the tested form may be a part): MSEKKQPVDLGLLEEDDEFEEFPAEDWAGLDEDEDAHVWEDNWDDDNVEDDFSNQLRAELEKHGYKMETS

One may read the Kd as the equilibrium constant for the complex coming apart. With “UAP56 (DDX39B), recombinant wild type (from UniProt Q13838 1-428) (enzyme)”, the values for the equilibrium dissociation constant (Kd) in experiment [1] and in experiment [2] were 10 to 20 µM and 12 µM, respectively.

“UAP56 lacking residues 1-28 (from UniProt Q13838 28-428) (domain or fragment)”: the equilibrium dissociation constant (Kd) in experiment [3] was found to be 0.17 µM.

For the molecule MDMSLDDII (also: biotin, position not given here) [ALYREF N-UBM peptide (GCI)], the Kd in experiment [4] worked out at 24 µM.
